Experimental findings from patent publication US20230133381A1 are described below.

Assay [1] concerns the target human DR5 (human). Kind of assay: TRAIL competitive ELISA: human DR5 coated on the plate (0.1 ug/ml), TRAIL titrated against the binding of control antibody AP, bound AP detected with anti-human Fc-HRP, ABTS, absorbance at 405 nm. (In general: ELISA stands for enzyme-linked immunosorbent assay.)
Assay [2] concerns the target human DR5 (human). Kind of assay: ELISA: human DR5 coated on the plate (10 ng/ml), antibody titrated, anti-human Fc-HRP, TMB, absorbance at 450 nm.
Assay [3] has as its target human DR5 (human). Kind of assay: SPR (BIAcore X100), human DR5 on CM5 chip, IgG injected, 1:1 Langmuir model.

In turn, “TRAIL protein (from UniProt P50591 114-281) (ligand)” returned an IC50 (read off the curve) with human DR5 (human) [1] of 5 nM.

B1: DA5 (antibody, V domains shown)
VH: EVQLVESGGGLVQPGGSLRLSCAASGFTFSSFNMLWVRQAPGKGLEWVAGIGKSDRYTGYGSAVKGRFTISRDDSKSTAYLQMNSLRAEDTAVYYCVRDAGSGCGSGGWTGACIDTWGQGTLVTVSS
VL: DIQMTQSPSSLSASVGDRVTITCSGGDSYAGSYYYGWYQQKPGKAPKTLIYNNNNRPSGVPSRFSGSTSGTDFTLTISSLQPEDFATYYCGSRDSSYVGIFGQGTKVEIK
In general, EC50 (read off the curve) refers to the concentration at which the effect is half-maximal. Lower therefore signals higher potency in that assay. By Kd is commonly meant the equilibrium constant for the complex coming apart. High values mean lower affinity, low ones higher affinity. Usually koff stands for the rate constant with which the complex falls apart. Lower therefore signals a long-lived complex. As usually defined, the kon is the rate constant with which the complex forms. Read a high kon as faster complex formation. Consider B1, for which the EC50 (read off the curve) with human DR5 (human) [2] stood at 0.03 µg/mL. In addition, in the assay with human DR5 (human) [3], the Kd is < 0.00833 nM, the koff is < 1e-05 s⁻¹ and the kon was found to be 1.2e+06 M⁻¹ s⁻¹.

B2: D0 (antibody, V domains shown)
VH: AVTLDESGGGLQTPGGGLSLVCKGSGFTFSSFNMLWVRQAPGKGLEWVAGIGKSDRYTGYGSAVKGRATISRDDGQSTVRLQLNNLRAEDTGTYYCVKDAGSGCGSGGWTGACIDTWGHGTEVIVSS
VL: LTQPSSVSANLGGTVEITCSGGDSYAGSYYYGWYQQKAPGSAPVTVIYNNNNRPSNIPSRFSGSTSGSTATLTITGVQAEDEAVYFCGSRDSSYVGIFGAGTTLTVL
B2 came in with an EC50 (read off the curve) with human DR5 (human) [2] of 0.006 µg/mL. In the assay with human DR5 (human) [3], the Kd was determined as 0.0152 nM, the dissociation rate constant (koff) is 2.26e-05 s⁻¹ and the kon amounted to 1.49e+06 M⁻¹ s⁻¹.

B3: DA29 (antibody, V domains shown)
VH: AVTLDESGGGLQTPGGGLSLVCKGSGFTFSSFNMLWVRQAPGKGLEWVAGIGKSDRYTGYGSAVKGRATISRDDGQSTARLQLNNLRAEDTGTYYCVKDAGSGCGSGGWTGACIDTWGHGTEVIVSS
VL: LTQPSSVSANLGGTVEITCSGGDSYAGSYYYGWYQQKAPGSAPVTVIYNNNNRPSNIPSRFSGSTSGSTATLTITGVQAEDEATYFCGSRDSSYVGIFGAGTTLTVL
For B3, the 50% effective concentration (EC50 (read off the curve)) in the assay with human DR5 (human) [2] was 0.01 µg/mL. Besides, in the assay with human DR5 (human) [3], the Kd was 0.0698 nM, the koff amounted to 8.47e-05 s⁻¹ and the kon turned out to be 1.21e+06 M⁻¹ s⁻¹.

B4: DA28 (antibody, V domains shown)
VH: AVTLDESGGGLQTPGGGLSLVCKGSGFTFSSFNMLWVRQAPGKGLEWVAGIGKSDRYTGYGSAVKGRATISRDDGQSTARLQLNNLRAEDTGTYYCVKDAGSGCGSGGWTGACIDTWGHGTEVIVSS
VL: LTQPSSVSANLGGTVEITCSGGDSYAGSYYYGWYQQKAPGSAPVTVIYNNNNRPSNIPSRFSGSTSGSTATLTITGVQAEDEAVYFCGSRDSSYVGIFGAGTTLTVL
B4 returned an EC50 (read off the curve) in the assay with human DR5 (human) [2] of 0.02 µg/mL. Besides, in the assay with human DR5 (human) [3], the Kd is 0.00389 nM, the off-rate constant (koff) stood at 4.52e-06 s⁻¹ and the kon amounted to 1.16e+06 M⁻¹ s⁻¹.

B5: DA30 (antibody, V domains shown)
VH: AVTLDESGGGLQTPGGGLSLVCKGSGFTFSSFNMLWVRQAPGKGLEWVAGIGKSDRYTGYGSAVKGRATISRDDGQSTAYLQMNSLRAEDTGTYYCVKDAGSGCGSGGWTGACIDTWGHGTEVIVSS
VL: LTQPSSVSANLGGTVEITCSGGDSYAGSYYYGWYQQKAPGSAPVTVIYNNNNRPSNIPSRFSGSTSGSTATLTITGVQAEDEATYYCGSRDSSYVGIFGAGTTLTVL
B5 returned an EC50 (read off the curve) with human DR5 (human) [2] of 0.02 µg/mL. In the assay with human DR5 (human) [3], this molecule had a Kd of 0.0774 nM, a koff of 7.97e-05 s⁻¹ and a kon of 1.03e+06 M⁻¹ s⁻¹.

B6: DA33 (antibody, V domains shown)
VH: AVTLDESGGGLQTPGGGLSLVCKGSGFTFSSFNMLWVRQAPGKGLEWVAGIGKSDRYTGYGSAVKGRATISRDDGQSTARLQLNNLRAEDTAVYYCVKDAGSGCGSGGWTGACIDTWGHGTEVIVSS
VL: LTQPSSVSANLGGTVEITCSGGDSYAGSYYYGWYQQKAPGSAPVTVIYNNNNRPSNIPSRFSGSTSGSTATLTITGVQAEDEATYFCGSRDSSYVGIFGAGTTLTVL
In the assay with human DR5 (human) [2], B6 registered a concentration for a half-maximal effect (EC50 (read off the curve)) of 0.02 µg/mL. Besides, in the assay with human DR5 (human) [3], the Kd came to 0.0788 nM, the koff was found to be 9.77e-05 s⁻¹ and the kon was 1.24e+06 M⁻¹ s⁻¹.

B7: DA31 (antibody, V domains shown)
VH: AVTLDESGGGLQTPGGGLSLVCKGSGFTFSSFNMLWVRQAPGKGLEWVAGIGKSDRYTGYGSAVKGRATISRDDGQSTARLQMNSLRAEDTGTYYCVKDAGSGCGSGGWTGACIDTWGHGTEVIVSS
VL: LTQPSSVSANLGGTVEITCSGGDSYAGSYYYGWYQQKAPGSAPVTVIYNNNNRPSNIPSRFSGSTSGSTATLTITGVQAEDEATYFCGSRDSSYVGIFGAGTTLTVL
As to B7, the EC50 (read off the curve) with human DR5 (human) [2] was 0.02 µg/mL. Besides, in the assay with human DR5 (human) [3], the Kd came to 0.0706 nM, the koff was determined as 8.79e-05 s⁻¹ and the kon was found to be 1.24e+06 M⁻¹ s⁻¹.

B8: DA26 (antibody, V domains shown)
VH: AVTLDESGGGLQTPGGGLSLVCKGSGFTFSSFNMLWVRQAPGKGLEWVAGIGKSDRYTGYGSAVKGRATISRDDGQSTVYLQMNSLRAEDTGTYYCVKDAGSGCGSGGWTGACIDTWGHGTEVIVSS
VL: LTQPSSVSANLGGTVEITCSGGDSYAGSYYYGWYQQKAPGSAPVTVIYNNNNRPSNIPSRFSGSTSGSTATLTITGVQAEDEATYYCGSRDSSYVGIFGAGTTLTVL
Molecule B8 came in with an EC50 (read off the curve) in the assay with human DR5 (human) [2] of 0.02 µg/mL. In the assay with human DR5 (human) [3], this molecule came in with a Kd of 0.00101 nM, an off-rate constant (koff) of 1.1e-06 s⁻¹ and a kon of 1.09e+06 M⁻¹ s⁻¹.
